Legend:
[1] = tested on: MGO-modified MRJP (MRJP mixture treated with MGO)
[2] = tested on: native hexamer form of MRJP1
[3] = tested on: monomeric form of royalactin

Cathepsin B from bovine spleen
Cathepsin B digestion, native PAGE [1]: Cathepsin B is unable to hydrolyze the protein at pH 7.0 but was able to hydrolyze the lower molecular weight species produced at pH 4.0
Cathepsin B digestion (data not shown) [2]: the native hexamer form of MRJP1 and the monomeric form of royalactin were readily degraded by this enzyme
Cathepsin B digestion (data not shown) [3]: the native hexamer form of MRJP1 and the monomeric form of royalactin were readily degraded by this enzyme
